Data set [1] concerns mouse epidermal stem cells. Nature of the data set: Cell proliferation and differentiation of engineered mouse epidermal cells in vitro (cell cycle FACS, calcium shift western blot). Format: cell-based. On the procedure:
(§1) Primary human neonatal epidermal keratinocytes were obtained from Thermo Fischer® (C0015C), and cultured with Epilife® medium (Thermo Fischer, M-EPICF-500) with manufacturer's recommended procedures. Calcium shift was performed to induce differentiation of primary keratinocytes by increasing the calcium concentration in culture media to 1.5 mM.
(§2) Propidium iodide (PI) staining followed by flow cytometry were used to determine the effect of cell cycle profiles. Mouse and human epidermal cells were cultured in two 6 cm cell culture dish for 24 hours, respectively. Cells were trypsinized, and 1×10^5 cells from each dish were collected, followed by one PBS wash. […] After staining, the cells were analyzed immediately using flow cytometer BD FACSCanto™ II (BD Biosciences, San Jose, CA) with an excitation wavelength at 488 nm and emission at 585 nm. DNA content and histograms of cell cycle distribution were analyzed using FlowJo™ software, version 10 (FLOWJO LLC, OR).
(§3) Western blotting was performed as described previously (Blanpain et al.). […] Visualization and quantification was carried out with the LI-COR Odyssey® scanner and software (LI-COR Biosciences).
(§4) Propidium iodide (PI) staining followed by flow cytometry were used to determine the effect of cell cycle profiles. […] DNA content and histograms of cell cycle distribution were analyzed using FlowJo™ software, version 10 (FLOWJO LLC, OR). […]
(A western blot detects proteins with antibodies after separation by electrophoresis.)

For data set [2], the system named is human epidermal keratinocytes. Nature of the data set: Cell proliferation and differentiation of engineered human epidermal cells in vitro. Format: cell-based. On the procedure:
as §1, §2, §3, §4

In data set [3] the test system is human epidermal cells. Nature of the data set: Secretion of GLP1 in culture medium by ELISA (human epidermal cells). Format: cell-based. The settings on record: engineered human epidermal cells, doxycycline. From the text:
To examine CRISPR-mediated genome editing in human epidermal cells, vectors encoding two gRNAs targeting human AAVS1 (adeno-associated virus integration site 1) locus, and an AAVS1-targeting vector (FIG. 16A) that harbors a tetracycline-inducible expression cassette encoding the GLP-1 and IgG-Fc fragment fusion protein were used. […] Clones were isolated and correct integration confirmed by southern blotting analysis (FIG. 13D).
For orientation: An ELISA detects its analyte on a solid surface through an enzyme-linked reagent.

In data set [4] the test system is insulinoma cells. Nature of the data set: Insulin secretion of starved insulinoma cells treated with conditioned medium (ELISA). Format: cell-based.
Data set [5] is described as follows: Intraperitoneal insulin tolerance test (ITT) in grafted mice. Format: in vivo, mouse. As to conditions: vs control mice or GLP1 mice without doxycycline. As for the experimental part:
For glucose and insulin tolerance tests, an intraperitoneal glucose tolerance test (IPGTT) was performed on mice fed an HFD for 10 weeks. Mice were fasted for 6 h before the test. Animals were injected (1 g/kg glucose/body weight, i.p.) with glucose dissolved in saline, and blood glucose was measured at 0, 30, 60 and 90 min using glucose test strips and glucose meters. An intraperitoneal insulin tolerance test was carried out 1 week after IPGTT. Mice were fasted for 4 h and injected (2 U/kg, i.p.) with insulin purchased from Sigma (St. Louis, MO). Blood glucose levels were determined thereafter at 0, 30, 60 and 90 min.
To examine glucose homeostasis, IPGTT (intraperitoneal glucose tolerance test) and ITT (insulin tolerance test) were performed.

Data set [6] can be described thus: GLP1 level in blood by ELISA, CD1 mice grafted with mouse skin organoids. Format: in vivo. On the procedure:
To investigate the potential therapeutic effect of GLP1 in vivo, skin organoid cultures with epidermal keratinocytes targeted with a GLP1-expression vector or a control vector, and transplant the organoids to CD1 host animals (FIGS. 11A and 11B-C) were prepared. […] Expression of GLP1 in grafted animals was stable for more than 3 months (FIG. 11K).

The subject of data set [7] is epidermal stem cells. Nature of the data set: Anchorage-independent growth in soft agar. As to conditions: SCC cancer initiating cells as positive control.

Take GLP1: the “effect of expression on cell proliferation / differentiation in vitro” value in data set [1] and in data set [2] was “did not significantly change cell proliferation” throughout. Besides, the GLP1 production entry in data set [3] is listed as “strong GLP1 production upon dose-dependent stimulation with doxycycline”. Further, the “insulin secretion induced by conditioned medium” value in data set [4] (conditioned medium from mouse epidermal cells) is on record as “significantly induce secretion of insulin”. In addition, the “insulin secretion induced by secreted GLP1 fusion protein” value in data set [4] (from human epidermal cells) is “induced insulin secretion in vitro”. The insulin resistance entry in data set [5] was “significantly reduced insulin resistance”. Also, the “level of GLP1 in the blood” value in data set [6] (food containing doxycycline) is on record as “significantly enhanced level of GLP1 in the blood”. Also, the “duration of stable GLP1 expression in grafted animals” value in data set [6] (mouse, in vivo) is “more than 3 months”. Moreover, the “anchorage-independent growth (tumorigenicity)” value in data set [7] was “cannot grow in suspension”.

Values taken from US20230392126A1, “TISSUE ORGANOIDS” (priority 2016, published 2023).
